From patent US20240400677A1 (ELECTRA THERAPEUTICS, published 2024)

T1: Cynomolgus Monkey SIRPγ (plate-coated extracellular domain)
T1 construct: also called Cyno SIRPγ
T1 extracellular domain: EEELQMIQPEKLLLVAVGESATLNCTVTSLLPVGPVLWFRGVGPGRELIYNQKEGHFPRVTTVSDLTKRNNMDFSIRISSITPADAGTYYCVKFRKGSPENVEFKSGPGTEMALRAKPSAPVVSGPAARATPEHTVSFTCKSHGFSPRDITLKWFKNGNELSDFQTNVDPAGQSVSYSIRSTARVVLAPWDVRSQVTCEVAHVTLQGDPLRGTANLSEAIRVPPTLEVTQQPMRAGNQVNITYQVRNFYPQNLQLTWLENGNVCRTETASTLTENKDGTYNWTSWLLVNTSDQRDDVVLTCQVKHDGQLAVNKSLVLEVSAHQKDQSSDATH

T2: cynomolgus monkey SIRPα on CHO cells (cynomolgus monkey, UniProt A0A2K5VYQ9 31-507)
T2 construct: whole, on cells; also called Cyno SIRPα CHO
T2 sequence: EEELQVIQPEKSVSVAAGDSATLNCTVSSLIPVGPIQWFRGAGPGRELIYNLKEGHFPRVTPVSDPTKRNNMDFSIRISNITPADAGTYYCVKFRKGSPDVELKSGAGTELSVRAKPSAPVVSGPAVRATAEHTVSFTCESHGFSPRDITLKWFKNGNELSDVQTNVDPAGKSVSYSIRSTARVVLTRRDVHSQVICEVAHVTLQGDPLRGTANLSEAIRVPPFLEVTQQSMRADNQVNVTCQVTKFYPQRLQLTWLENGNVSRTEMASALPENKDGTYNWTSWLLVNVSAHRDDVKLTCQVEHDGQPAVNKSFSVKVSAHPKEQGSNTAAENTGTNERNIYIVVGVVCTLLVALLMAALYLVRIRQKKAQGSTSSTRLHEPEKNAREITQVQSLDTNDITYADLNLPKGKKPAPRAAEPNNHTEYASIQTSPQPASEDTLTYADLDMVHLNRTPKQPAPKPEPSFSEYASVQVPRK


Assays:
[1] = target: T1, Cynomolgus Monkey SIRPγ (plate-coated …); experiment: ELISA, coated SIRP ECD (2 µg/mL), anti-human IgG, luminescence
Protocol: (§1) Selected hybridoma supernatants of Example 1 were tested for binding to human SIRPγ, cynomolgus monkey SIRPγ, human SIRPα V1, cynomolgus monkey SIRPα, human SIRPβ1, and cynomolgus monkey SIRPβ1 by enzyme-linked immunosorbent assay (ELISA). Briefly, 2 μg/mL of the extracellular domain of SIRP protein was coated onto high protein-binding plates and blocked. Undiluted supernatants were added to coated plates. The antibodies were detected by an anti-rat antibody and a chemiluminescent substrate. […] The data depict the relative luminescence units read by a plate-reader capable of detecting chemiluminescence.
(§2) FIGS. 2A-2G show binding curves of SIRPγ antibodies and human Fc isotype controls to human SIRPγ, cynomolgus monkey SIRPγ, human SIRPα V1, human SIRPα V2, and human SIRPβ1 by ELISA. […] Isotype control 2 was an unrelated human IgG1 antibody with irrelevant CDRs with no modifications in the Fc region. DNA was transiently transfected into Expi293F cells for 5 days. Antibodies were purified by Protein A from cell supernatants and analyzed in a titration via ELISA as previously described in FIG. 1 using an anti-human IgG antibody as the detection antibody.

[2] = target: T3, human SIRPβ1 on CHO cells (co-transfected with DAP12) (human, UniProt O00241 30-398); experiment: flow cytometry, CHO transfectants, anti-human IgG
T3 construct: whole, on cells; co-transfected with DAP12; also called Human SIRPβ1 CHO
T3 sequence (O00241 30-398): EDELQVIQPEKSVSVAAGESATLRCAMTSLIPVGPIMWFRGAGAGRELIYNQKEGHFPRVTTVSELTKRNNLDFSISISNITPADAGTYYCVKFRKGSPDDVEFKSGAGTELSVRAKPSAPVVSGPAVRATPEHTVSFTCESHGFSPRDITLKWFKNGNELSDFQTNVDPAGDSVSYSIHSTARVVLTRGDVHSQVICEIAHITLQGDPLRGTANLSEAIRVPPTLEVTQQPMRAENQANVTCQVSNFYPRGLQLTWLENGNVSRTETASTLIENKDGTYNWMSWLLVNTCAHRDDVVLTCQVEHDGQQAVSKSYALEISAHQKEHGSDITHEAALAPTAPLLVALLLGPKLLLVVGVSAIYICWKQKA
Protocol: (§3) Selected antibodies were tested for binding to stably transfected human SIRPγ, SIRPαV1, or SIRPβ1 (co-transfected with DAP12) Chinese hamster ovary (CHO) cells via flow cytometry. A titration of select antibodies was added to the cells and detected using a fluorescently labelled secondary anti-rat IgG antibody or anti-human IgG antibody. Graphs depict the median fluorescence intensity (MFI) at each concentration. FIGS. 5A and 5G show the binding curves of select antibodies to human SIRPγ, cynomolgus monkey SIRPγ, human SIRPα, cynomolgus monkey SIRPα, human SIRPβ1, or cynomolgus monkey SIRPβl-expressing CHO cells detected using an anti-rat IgG antibody. FIGS. 5B-5F and 5H-5L show the binding curves of select antibodies to human SIRPγ, cynomolgus monkey SIRPγ, human SIRPα, cynomolgus monkey SIRPα, human SIRPβ1, or cynomolgus monkey SIRPβ1-expressing CHO cells detected using an anti-human IgG antibody. […] For select antibodies, each myc-tagged SIRPγ scFv antibody as crude PPE was incubated with each of the SIRP-expressing cell lines stated above along with the parental CHO-K1 cell line. […] Fold change value <2.0 is considered a non-binder.

[3] = target: T2, cynomolgus monkey SIRPα on CHO cells; experiment: flow cytometry, CHO transfectants, anti-human IgG
Protocol: as §3

[4] = target: T4, extracellular binding domain of human SIRPγ (plate-coated) (human, UniProt Q9P1W8 29-360); experiment: ELISA, coated SIRP ECD (2 µg/mL), anti-human IgG, luminescence
T4 construct: also called hSIRPγ
T4 sequence (Q9P1W8 29-360 limits assumed): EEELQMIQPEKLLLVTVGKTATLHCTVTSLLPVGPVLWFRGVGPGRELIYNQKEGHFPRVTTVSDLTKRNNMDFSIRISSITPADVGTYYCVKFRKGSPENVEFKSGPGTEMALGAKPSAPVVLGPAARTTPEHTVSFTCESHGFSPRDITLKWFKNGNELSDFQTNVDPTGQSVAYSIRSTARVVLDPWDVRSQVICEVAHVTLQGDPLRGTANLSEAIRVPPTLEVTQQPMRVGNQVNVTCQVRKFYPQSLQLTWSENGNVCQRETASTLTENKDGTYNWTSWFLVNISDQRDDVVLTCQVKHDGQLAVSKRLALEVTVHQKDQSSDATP
Protocol: as §1, §2

binding result [1]	binding result [2]	binding result [3]	EC50 (read off the curve) [1] [µg/mL]	EC50 (read off the curve) [4] [µg/mL]	Binder
binds	no binding (tested: about 20 µg/mL)	no binding (tested: about 20 µg/mL)			Antibody 62 (antibody, V domains shown) VH: QVQLVQSGAEVKKPGASVKVSCKASGGTFSNYDINWVRQAPGQGLEWMGWISAYNGNTNYAQKLQGRVTMTRDTSTSTVYMELSSLRSEDTAVYYCAAEAYGDYSLDPWGQGTLVTVSS VL: DIQMTQSPSSLSASVGDRVTITCQASQGISSYLNWYQQKPGKAPKLLIYAASSLQNGVPSRFSGSGSGTDFTLTISSLQPEDFATYYCQQSYSTPITFGQGTRLEIK
	no binding (tested: about 20 µg/mL)	no binding (tested: about 20 µg/mL)	~0.04	~0.02	Antibody 77 (antibody, V domains shown) VH: QVQLVQSGAEVKKPGASVKVSCKASGYTFTSYGISWVRQAPGQGLEWMGWISAYNGNTNYAQKFQGRVTMTRDTSTSTVYMELSSLRSEDTAVYYCARGTYYDYIWGSYRYSWFDYWGQGTLVTVSS VL: not shown
	no binding (tested: about 20 µg/mL)	no binding (tested: about 20 µg/mL)	~0.1	~0.09	Antibody 58 (antibody, V domains shown) VH: QVQLVQSGAEVKKPGASVKVSCKASGYTFTAYYMHWVRQAPGQGLEWMGIINPSGGSTSYAQKFQGRVTMTRDTSTSTVYMELSSLRSEDTAVYYCARDSGWYAPGYYYGMDVWGQGTTVTVSS VL: DIQMTQSPSSLSASVGDRVTITCRASESISHWLAWYQQKPGKAPKLLIYGASTLQSGVPSRFSGSGSGTDFTLTISSLQPEDFATYYCQQSYTPPLTFGGGTKVEIK
	no binding (tested: about 20 µg/mL)	no binding (tested: about 20 µg/mL)		~0.7	Antibody 55 (antibody, V domains shown) VH: EVQLLESGGGLVQPGGSLRLSCAASGFTFSNSDMNWVRQAPGKGLEWVSYISSSGNTIYYADSVKGRFTISRDNSKNTLYLQMNSLRAEDTAVYYCARSNWNYPLDYYYMDVWGKGTTVTVSS VL: DIVMTQSPLSLPVTPGEPASISCRSSQSLLHSNGYNYLDWYLQKPGQSPQLLIYAASSLQSGVPDRFSGSGSGTDFTLKISRVEAEDVGVYYCMQGTHWPPTFGQGTKVEIK
	no binding (tested: about 20 µg/mL)		~0.4	~0.7	Antibody 56 (antibody, V domains shown) VH: QVQLVQSGAEVKKPGASVKVSCKASGYTFTSYYMHWVRQAPGQGLEWMGWVDPNNGDTGYAQKFQGRVTMTRDTSTSTVYMELSSLRSEDTAVYYCARDNWGSLDVWGKGTTVTVSS VL: DIVMTQSPLSLPVTPGEPASISCRSSQSLLHSNGYNYLDWYLQKPGQSPQLLIYAASTLQSGVPDRFSGSGSGTDFTLKISRVEAEDVGVYYCMQGLQTLYSFGQGTKLEIK
	no binding (tested: about 20 µg/mL)	no binding (tested: about 20 µg/mL)	~0.1		Antibody 66 (antibody, V domains shown) VH: QVQLVQSGAEVKKPGASVKVSCKASGGTFSSYAISWVRQAPGQGLEWMGIINPSSSSTGYAQKFQGRVTMTRDTSTSTVYMELSSLRSEDTAVYYCARAGYYDSSGYYYSPYYGMDVWGQGTTVTVSS VL: EIVMTQSPATLSVSPGERATLSCRASQSISGSYLAWYQQKPGQAPRLLIYGASTRATGIPARFSGSGSGTEFTLTISSLQSEDFAVYYCQQYGSFPFTFGPGTKVDIK
	no binding (tested: about 20 µg/mL)	no binding (tested: about 20 µg/mL)	~0.7	~0.4	Antibody 74 (antibody, V domains shown) VH: QVQLVQSGAEVKKPGASVKVSCKASGGTFSNYGFSWVRQAPGQGLEWMGWMSPSSGNTGYAQKFQGRVTMTRDTSTSTVYMELSSLRSEDTAVYYCARERSGSYFDYWGQGTLVTVSS VL: EIVMTQSPATLSVSPGERATLSCRASQSVSSYLAWYQQKPGQAPRLLIYGTSTRATGIPARFSGSGSGTEFTLTISSLQSEDFAVYYCQQYGSLPFTFGQGTRLEIK
	no binding (tested: about 20 µg/mL)	no binding (tested: about 20 µg/mL)	~0.1	~0.09	Antibody 76 (antibody, V domains shown) VH: QVQLVQSGAEVKKPGSSVKVSCKASGGTFSKIAVSWVRQAPGQGLEWMGLINPNSGGTDYAQKFQGRVTITADESTSTAYMELSSLRSEDTAVYYCAKDFRGGDYYYYGMDVWGQGTTVTVSS VL: EIVMTQSPATLSVSPGERATLSCRASQSVSSNLAWYQQKPGQAPRLLIYGASTRATGIPARFSGSGSGTEFTLTISSLQSEDFAVYYCQQYNTYPITFGQGTKVEIK
binds	no binding (tested: about 20 µg/mL)	no binding (tested: about 20 µg/mL)			Antibody 67 (antibody, V domains shown) VH: QVQLVQSGAEVKKPGASVKVSCKASGYTFTNFDINWVRQAPGQGLEWMGWISAYNGHTNYAQNLQGRVTMTRDTSTSTVYMELSSLRSEDTAVYYCAQEAAAGYFDYWGQGTLVTVSS VL: DIQMTQSPSSLSASVGDRVTITCRASQDIRNDLAWYQQKPGKAPKLLIYDASNLETGVPSRFSGSGSGTDFTLTISSLQPEDFATYYCQQSYGTPYTFGQGTKLEIK
binds	no binding (tested: about 20 µg/mL)	no binding (tested: about 20 µg/mL)			Antibody 78 (antibody, V domains shown) VH: QVQLVQSGAEVKKPGASVKVSCKASGYTFTTYGISWVRQAPGQGLEWMGWMDPNSGSTGYAQKFQGRVTMTRDTSTSTVYMELSSLRSEDTAVYYCARGRGNSYYYYYMDVWGKGTTVTVSS VL: DIQMTQSPSSLSASVGDRVTITCRASQRIGSYLNWYQQKPGKAPKLLIYGASNLQSGVPSRFSGSGSGTDFTLTISSLQPEDFATYYCQQANSFPFTFGPGTKVDIK
binds					Antibody 61 (antibody, V domains shown) VH: QVQLVQSGAEVKKPGASVKVSCKASGYTFTSHDINWVRQAPGQGLEWMGISNPSGGSTYYAQKFQGRVTMTRDTSTSTVYMELSSLRSEDTAVYYCASSRRYWNGAFDYWGQGTLVTVSS VL: not shown
	no binding (tested: about 20 µg/mL)	no binding (tested: about 20 µg/mL)	~0.04	~0.02	Antibody 81 (antibody, V domains shown) VH: QVQLVQSGAEVKKPGASVKVSCKASGYTFTSYDINWVRQAPGQGLEWMGWISGYNGNTNYAQKFQGRVTMTRDTSTSTVYMELSSLRSEDTAVYYCARSFDWLLLLDYWGQGTLVTVSS VL: DIQMTQSPSSLSASVGDRVTITCRASQSISSWLAWYQQKPGKAPKLLIYDATTLESGVPSRFSGSGSGTDFTLTISSLQPEDFATYYCQQYDSYPWTFGQGTKLEIK
